Columns and labels:
Format in all cases: cell-based
[1] = target: A*0201 class I MHC molecules in cells infected with the West Nile virus (Homo sapiens, UniProt P04439, D140Y/D185E/D98H/E176V/E277Q/G131W/G231S/I119V/I121R/I166T/I218V/L300P/L318F/N151K/N90K/P208A/P217A/Q86G/Q94H/R138H/R169H/T345S)
[2] = target: A*0201 class I MHC molecules in cells infected with the PR8 strain of influenza A virus (Homo sapiens, UniProt P04439, D140Y/D185E/D98H/E176V/E277Q/G131W/G231S/I119V/I121R/I166T/I218V/L300P/L318F/N151K/N90K/P208A/P217A/Q86G/Q94H/R138H/R169H/T345S)
[3] = target: sHLA-A*0201 from MCF-7, MDA-MB-231, BT-20 and MCF10A (Homo sapiens, UniProt P04439, D140Y/D185E/D98H/E176V/E277Q/G131W/G231S/I119V/I121R/I166T/I218V/L300P/L318F/N151K/N90K/P208A/P217A/Q86G/Q94H/R138H/R169H/T345S); assay: MS comparative analysis of sHLA-A*0201 peptides, breast cancer cell lines vs nontumorigenic MCF10A; conditions: for FOLD INCREASE BT-20 over MCF10A / FOLD INCREASE MCF-7 over MCF10A / FOLD INCREASE MDA-MB-231 over MCF10A: peptide epitope presented on sHLA-A*0201; for FOLD INCREASE BT-20 over MCF10A: BT-20 vs nontumorigenic MCF10A; for FOLD INCREASE MCF-7 over MCF10A: MCF-7 vs nontumorigenic MCF10A; for FOLD INCREASE MDA-MB-231 over MCF10A: MDA-MB-231 vs nontumorigenic MCF10A

Sequence: KIVVVTAGV
- Fold Increase [1]: Unique

Sequence: SVGGVFTSV
- Fold Increase [1]: Unique

Sequence: FLKEPALNEA
- Fold Increase [1]: Unique

Sequence: SLLEKSLGL (listed as Homo sapiens)
- Fold Increase [2]: 1.64
- FOLD INCREASE BT-20 over MCF10A [3]: None
- FOLD INCREASE MCF-7 over MCF10A [3]: 7.9
- FOLD INCREASE MDA-MB-231 over MCF10A [3]: 7.4

Sequence: VLDELKVA
- Fold Increase [1]: Unique

Sequence: SLFGQRIEN
- Fold Increase [1]: Unique

Sequence: ATWAENIQV
- Fold Increase [1]: Unique

Sequence: NLMHISYE
- Fold Increase [1]: Unique

Sequence: GLIEKNIEL (listed as Homo sapiens)
- Fold Increase [2]: 1.58
- presentation by HLA A*0201 of tumorigenic vs nontumorigenic cell lines ([3]; MCF-7, MDA-MB-231, BT-20 vs MCF10A): shared by all 4 cell lines

Sequence: YTMDGEYRL
- Fold Increase [1]: Unique

Sequence: LDQSVTHL
- Fold Increase [1]: Unique

Sequence: LLDVPTAA
- Fold Increase [1]: Unique

Sequence: RLDDDGNFQL
- Fold Increase [1]: Unique

Sequence: SLFPGKLEV
- FOLD INCREASE BT-20 over MCF10A [3]: 2
- FOLD INCREASE MCF-7 over MCF10A [3]: 5
- FOLD INCREASE MDA-MB-231 over MCF10A [3]: 2.2
